Legend:
RXR ALPHA = target: T1, RXR ALPHA (Mus musculus, UniProt P28700 P28700:1-467); test: EMSA; RXR alpha alone; settings: tags: pSG5-mRXR-alpha, rabbit reticulocyte lysate; label: end-labeled
T1 sequence: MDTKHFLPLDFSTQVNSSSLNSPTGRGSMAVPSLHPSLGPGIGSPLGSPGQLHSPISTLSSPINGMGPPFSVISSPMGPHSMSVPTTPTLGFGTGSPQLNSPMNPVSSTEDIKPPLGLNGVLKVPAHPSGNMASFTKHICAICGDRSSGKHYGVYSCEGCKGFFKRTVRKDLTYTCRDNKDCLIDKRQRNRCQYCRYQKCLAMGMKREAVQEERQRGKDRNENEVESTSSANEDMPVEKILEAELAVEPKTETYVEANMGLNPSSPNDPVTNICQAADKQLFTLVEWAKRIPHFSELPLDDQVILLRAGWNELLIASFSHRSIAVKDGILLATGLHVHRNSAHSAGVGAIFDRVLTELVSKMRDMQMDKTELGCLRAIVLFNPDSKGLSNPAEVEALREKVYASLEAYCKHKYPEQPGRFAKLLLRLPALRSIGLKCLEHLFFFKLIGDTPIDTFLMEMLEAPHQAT
Method: (§1) The electrophoretic gel shift studies were carried out by using the indicated end-labeled oligonucleotides, in the presence of the murine PPAR GAMMA receptor, murine RXR ALPHA receptor, human REV-ERB ALPHA receptor produced by reticulocyte lysate, or non-programmed lysates (lysate). Binding competition experiments were performed by adding a 0, 10 or 100-fold excess of unlabeled Rev-DR2 oligonucleotide.
(§2) The pSG5-mPPAR-gamma, pSG5-mRXR-alpha and pSG5-hRev-erb alpha plasmids were transcribed in vitro with T7 polymerase and translated with the rabbit reticulocyte lysate system (Promega, Madison, Wis., USA). Gel shift experiments with REV-ERB ALPHA, PPAR GAMMA and/or RXR ALPHA proteins were carried out as previously described (Gervois, P. et al., Molecular Endocrinology 1999, 13(3): 400-409; Vu-Dac, N. et al., J. Biol. Chem. 1994, 269(49): 31012-31018). For the competition experiments, increasing quantities of the indicated unlabeled probe were added immediately before adding the labeled oligonucleotide. The complexes were resolved in 5% polyacrylamide gels using […] buffer (90 mM borate, 2.5 mM EDTA, pH 8.3) at room temperature. Gels were dried and exposed overnight at −70° C. on Rayon-X film (XOMAT-AR, Eastman Kodak, Rochester, N.Y., USA).
(§3) Lastly, binding of the PPAR GAMMA receptor to the Rev-DR2 site was studied. […]

PPAR GAMMA = PPAR GAMMA (Mus musculus, UniProt P37238 P37238:1-505); test: EMSA; PPAR gamma alone; settings: tags: pSG5-mPPAR-gamma, rabbit reticulocyte lysate; label: end-labeled
Method: as §1, §2, §3

REV-ERB ALPHA (NR1D1) = target: T2, REV-ERB ALPHA (NR1D1) (Homo sapiens, UniProt P20393 SEQ:1-614); test: EMSA; binds as monomer and homodimer; settings: tags: expressed from pSG5-hRev-erb alpha, rabbit reticulocyte lysate; label: end-labeled
T2 sequence: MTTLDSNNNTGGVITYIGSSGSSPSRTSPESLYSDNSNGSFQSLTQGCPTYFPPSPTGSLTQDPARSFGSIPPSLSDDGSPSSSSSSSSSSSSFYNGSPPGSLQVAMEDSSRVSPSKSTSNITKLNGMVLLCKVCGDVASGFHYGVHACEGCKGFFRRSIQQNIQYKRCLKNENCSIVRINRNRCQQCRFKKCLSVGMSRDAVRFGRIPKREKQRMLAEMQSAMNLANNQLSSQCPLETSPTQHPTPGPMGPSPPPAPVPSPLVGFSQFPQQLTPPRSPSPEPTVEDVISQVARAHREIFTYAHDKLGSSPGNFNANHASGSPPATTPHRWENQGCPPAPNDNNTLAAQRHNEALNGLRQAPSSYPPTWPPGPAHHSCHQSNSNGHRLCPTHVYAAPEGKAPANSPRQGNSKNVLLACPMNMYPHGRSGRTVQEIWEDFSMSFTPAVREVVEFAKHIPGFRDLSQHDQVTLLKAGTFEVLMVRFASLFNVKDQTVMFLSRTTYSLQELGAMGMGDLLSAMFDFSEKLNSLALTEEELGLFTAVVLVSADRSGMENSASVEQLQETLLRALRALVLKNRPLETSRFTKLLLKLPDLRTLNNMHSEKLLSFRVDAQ
Method: as §1, §2, §3

[1] = target: PPAR GAMMA / RXR ALPHA heterodimer (Mus musculus, UniProt P37238;P28700 P37238:1-505,P28700:1-467); test: EMSA; competed by excess (10 or 100-fold tested) unlabeled Rev-DR2; settings: tags: pSG5-mPPAR-gamma and pSG5-mRXR-alpha, rabbit reticulocyte lysate; label: end-labeled
Method: Binding competition experiments were performed by adding a 0, 10 or 100-fold excess of unlabeled Rev-DR2 oligonucleotide.
as §2
Lastly, binding of the PPAR GAMMA receptor to the Rev-DR2 site was studied. A test to measure electrophoretic mobility (gel shift or electrophoretic mobility shift assay) was carried out using PPAR GAMMA and RXR ALPHA proteins synthesized in vitro. […]

B1: Rev-DR2 (dsDNA)
DNA 1: AAAAGTGTGTCACTGGGGCA
DNA 2: TGCCCCAGTGACACACTTTT
binding result (RXR ALPHA): no binding
binding result (PPAR GAMMA): no binding
binding result (REV-ERB ALPHA (NR1D1)): binds
binding result [1]: binds
